This test addresses T1, PPEP-3 E154A/Y190F (proteolytically inactive double mutant of Pro-Pro endopeptidase 3 from Geobacillus … (Geobacillus thermodenitrificans strain …, UniProt A4INY2 27-235, E154A | Y190F)).
T1 construct: codon optimised for E. coli, cloned in pET28a via NdeI/XhoI; Zinc metalloprotease; for the substrate complex the catalytic Zn2+ was partly removed with EDTA and ortho-phenanthroline (occupancy about 40-50%); Surmise: pET28a with NdeI/XhoI adds an N-terminal His6 tag with a thrombin site; no cleavage of the tag is described, and 381 uM = 10 mg/mL (about 26 kDa) fits a kept tag; source: E. coli …
T1 sequence (looked up): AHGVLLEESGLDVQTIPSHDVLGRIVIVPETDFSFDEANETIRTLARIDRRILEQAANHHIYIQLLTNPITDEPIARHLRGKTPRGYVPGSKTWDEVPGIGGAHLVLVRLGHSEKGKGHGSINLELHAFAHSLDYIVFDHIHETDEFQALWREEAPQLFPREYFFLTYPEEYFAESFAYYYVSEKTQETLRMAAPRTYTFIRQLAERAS
As to the kind of experiment: crystal structure; co-crystal of the Zn2+-depleted (EDTA and ortho-phenanthroline) double mutant with the substrate peptide; sitting drop vapour diffusion, Morpheus E9, 0.1 M bicine/Trizma base pH 8.5; 2.02 Å, space group P212121, four monomers in the ASU. The settings on record: both partners purified.

The source of these data is paper PMC12828418, “Structural analyses and substrate profiling of PPEP-3 provide new insights into the molecular basis of Pro-Pro endopeptidase specificity” (iScience, 2025).

B1: Ac-EPLPPPP-NH2 substrate peptide (peptide)
peptide: Ac-EPLPPPP-NH2
notes: synthetic substrate peptide of PPEP-3; P3-P3' are PLPPPP, cleavage between P1 and P1' prolines; also called PLPPPP (P3-P3'); source: synthetic peptide
Consider B1, for which the binding result is “binds”.
